# Assay results reported in US20030171565.
# Tested on: protein zero related (PZR), tyrosine-phosphorylated
# Sequence (chain, as listed by the source): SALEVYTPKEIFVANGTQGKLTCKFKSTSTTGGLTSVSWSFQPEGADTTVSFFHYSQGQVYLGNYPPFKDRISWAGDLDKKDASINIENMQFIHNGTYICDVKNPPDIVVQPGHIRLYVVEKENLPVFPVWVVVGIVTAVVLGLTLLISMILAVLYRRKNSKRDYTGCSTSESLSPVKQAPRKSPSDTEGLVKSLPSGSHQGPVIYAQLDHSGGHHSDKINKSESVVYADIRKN
substance,measurement,value
tyrosine phosphatase SHP-1,dephosphorylation of purified p43 in vitro (anti-phosphotyrosine Western blot),SHP-1 only produced a partial dephosphorylation
